We go through two molecules from patent US8530235B2, “Medium that supports culture of an oocyte and modulation of granulosa cell apoptosis” (Adelaide Research & Innovation Pty Ltd., priority 2005, dated 2013).

Assay [1] concerns cumulus-oocyte complexes. In words: Study IV: oocyte developmental competence after IVM, IVF and embryo culture. It counts as cell-based, Bovine. Conditions: for blastocyst yields with exogenous factor / effect on cleavage rate: Experiments 3 & 4; for blastocyst yields with exogenous factor: 175 ng/ml GDF9 or 10% v/v BMP15; for effect on cleavage rate: 4 μM SB-431542, 175 ng/ml GDF9, 10% v/v BMP15, 10% v/v 293H. The procedure:
Unless otherwise specified, all chemicals and reagents were purchased from Sigma (St Louis, Mo.). Bovine ovaries were collected from local abattoirs and transported to the laboratory in warm saline (30-35° C.). COCs were aspirated from antral follicles (3 to 5 mm diameter) using an 18-gauge needle and a 10-ml syringe containing ˜2 ml aspiration medium (Hepes-buffered. Tissue Cultured Medium-199; TCM-199. ICN Biochemicals, Irvine, Calif., USA) supplemented with 50 μg/ml kanamycin, 0.5 mM sodium pyruvate, 50 μg/ml heparin and 4 mg/ml fatty acid-free bovine serum albumin (FAF-BSA; ICPbio Ltd, Aukland, NZ). Intact COCs with compact cumulus vestments>˜5 cell layers and evenly pigmented cytoplasm were selected under a dissecting microscope and washed twice in Hepes-buffered TCM-199 and once in Hepes-buffered TCM-199 supplemented with 10% fetal calf serim (FCS) (Invitrogen, Carlsbad, Calif.). The basic medium for oocyte maturation was Bovine VitroMat (Cook Australia, Eight Mile Plains, Qld, Australia), a medium based on the ionic composition of bovine follicular fluid. […] Complexes were cultured in pre-equilibrated 300 ? l drops overlaid with mineral oil and incubated at 39° C. with 5% CO2 in humidified air for 24 hour. […]
Recombinant mouse GDF9 and recombinant ovine BMP15 were produced and partially purified in-house as previously described using transfected 293 human embryonic kidney cell lines (293H) originally donated by O. Ritvos (University of Helsinki). Control conditioned medium (hereafter designated ‘293H’) was produced from untransfected 293H cells and subjected to the same chromatography procedures as GDF9 and BMP15 conditioned media.
Consequently, SB-431542 potently antagonizes the ALK 4/5 ligands; TGF-β1, the activins and GDF9, without affecting BMP signalling (Inman et al., 2002; Gilchrist et al., 2006). […] Follistatin-288 was generously donated by S. Shimasaki (University of California San Diego, USA) and we have previously shown that this binding protein antagonizes the bioactivities of native OSFs and recombinant BMP15 in CCs.
In vitro production of embryos was undertaken using defined, serum-free media (Bovine Vitro series of media, Cook Australia). Frozen semen from a single bull of proven fertility was used in all experiments. Briefly, thawed semen was layered over a discontinuous (45%: 90%) Percoll gradient (Amersham Bioscience) and centrifuged (RT) for 20-25 mins at 700 g. The supernatant was removed and the sperm pellet was washed with 500 μl Bovine VitroWash (Cook Australia) and centrifuged for a further 5 minutes at 200 g. Spermatozoa were resuspended with IVF medium (Bovine VitroFert, Cook Australia), then added to the fertilization media drops (Bovine VitroFert, supplemented with 0.01 mM heparin, 0.2 mM penicillamine and 0.1 mM hypotaurine) at a final concentration of 1×106 spermatozoa/ml. COCs were inseminated at a density of 10 μl of IVF medium per COC for 24 h, at 39° C. in 6% CO2 in humidified air.
CCs were removed by gentle pipetting 23-24 h post insemination and five presumptive zygotes were transferred into 20 μl drops of pre-equilibrated Cook Bovine VitroCleave medium (Cook Australia) and cultured under mineral oil at 38.5° C. in 7% O2, 6% CO2, balance N2, for five days (day 1 to day 5).
On Day 5, embryos were transferred in groups of 5-6 to 20 μl drops of pre-equilibrated Bovine VitroBlast (Cook Australia) at 38.5° C. overlaid with mineral oil and cultured to Day 8. Embryos were assessed for quality at Day 8 according to the definitions presented in the Manual of the International Embryo Transfer Society (Stringfellow, 1998) and were performed independently and blinded by an experienced bovine embryologist.
Cell counts were performed using a modified version of the technique described by (Fouladi-Nashta et al., 2005). […]

The test system of a further assay is mural granulosa cells. As to the kind of experiment: Mural granulosa cell DNA synthesis, 3H-thymidine incorporation. Type of assay: cell-based, marmoset monkey, Callithrix jacchus. Conditions: peri antral, small antral and large antral follicles; most notably small follicles, synergism with IGF1. The protocol: Mural GC from large antral follicles were cultured for 24h and thymidine incorporation was stimulated with 175 ng/ml GDF9. […] Bars/points represent means+/−SEM from 3 replicate experiments expressed as a fold change relative to control.
Follicles were manually excised and separated into 3 size classes: periantral (PA; 0.42-0.66 mm), small antral (SA; 0.66-1.5 mm) and large antral (LA; >1.5 mm). GCs from each follicle size were collected and pooled, then washed twice in bicarbonate-buffered tissue culture medium-199 (B-TCM) supplemented with 0.3 mg/ml of polyvinyl alcohol (PVA, Sigma). Depending on the individual experiments, mural GCs (1×10^5 cells/ml), hormones, inhibitors and media were added to wells of 96-well plates (Falcon) to give a final volume of 125 μl. Within each experiment, all treatments were carried out in at least duplicate wells and each experiment was replicated on at least 3 occasions. Cells were cultured in an atmosphere of 37° C., 96% humidity in 5% CO2 in air for 18 hours, followed by a further 6 hour pulse of 15.4 kBq tritiated thymidine (3H-thymidine, ICN) under the same conditions.
Seven adult female marmosets were primed with […] for 6 days, whole ovaries were removed on day 7, follicles manually excised, and GC were then collected from 3 size classes: periantral (PA; 0.42-0.66 mm), small antral (SA; 0.66-1.5 mm) and large antral (LA; >1.5 mm). Four different approaches were utilized to examine GDF9 function in GC. […] To examine the GDF9 signalling pathway, cultured GC from LA follicles were transfected with either a CAGA-luciferase or BRE-luciferase reporter construct and treated with various TGF-β superfamily growth factors or co-cultured with mouse oocytes. In order to determine the effects of GDF9 on marmoset GC proliferation, we employed a GC bioassay whereby after 24 h ^3H-thymidine incorporation is assessed as an indicator of DNA synthesis and cellular proliferation. […] In another experiment, GC were treated with an increasing dose of SB431542, an activin-like kinase (ALK) 4/5/7 inhibitor, in the presence of GDF9+/−IGF1.
In general terms: Incorporation of labelled thymidine or its analogues reports DNA synthesis.

Assay [2] can be described thus: Study V: pregnancy outcome after transfer of blastocysts to pseudo-pregnant females. It counts as in vivo, mice. Conditions: oocytes matured with 200 ng/ml GDF9, Day 15 of pregnancy. The protocol: (§1) Oocytes (n=1106) were then fertilised and cultured to the blastocyst stage in G1.2/G2.2 medium at 37° C. in 6% CO2 5% O2. Blastocysts were pooled and either transferred to pseudo-pregnant Swiss females or differentially stained. Pregnancy outcome was assessed on Day 15 of pregnancy.

For assay [3], the system named is cumulus-oocyte complexes. In words: Study V: oocyte IVM with GDF9, cumulus expansion and embryo development. It counts as cell-based, mice. To be noted: 200 ng/ml GDF9 with FSH/EGF. The protocol: as §1

B1: GDF-9: Recombinant mouse GDF-9 produced in-house in transfected 293H cells, partially purified by HIC (protein, UniProt Q07105 307-441, looked up)
Growth/differentiation factor …: GQKAIRSEAKGPLLTASFNLSEYFKQFLFPQNECELHDFRLSFSQLKWDNWIVAPHRYNPRYCKGDCPRAVRHRYGSPVHTMVQNIIYEKLDPSVPRPSCVPGKYSPLSVLTIEPDGSIAYKEYEDMIATRCTCR
For B1, in the assay on cumulus-oocyte complexes [1] (Experiment 2, 175 ng/ml GDF9, with or without 10% v/v BMP15), the blastocyst yield entry is given as “increased (P<0.05) blastocyst yield compared to 293H-treated COCs, but not compared to COCs cultured alone”. Besides, in the assay with cumulus-oocyte complexes [1], the “blastocyst yields with exogenous factor” value was “increased blastocyst yields” and the “effect on cleavage rate” value was “did not significantly alter cleavage rates”. The “GC DNA synthesis” value in the assay on mural granulosa cells is “stimulates GC DNA synthesis in all follicle sizes”. This molecule also showed a fetal development in assay [2] (vs 21%, P=0.04) of 39%. In addition, the implantation in assay [2] (vs 77%, not affected) came out at 83%. For the same molecule, the “fertilisation, rate of development or blastocyst percentages” value in the assay on cumulus-oocyte complexes [3] is listed as “no significant effect”. The “blastocyst total cell number” value in the assay on cumulus-oocyte complexes [3] (P=0.05) is listed as “significantly increased”. Besides, in the assay on cumulus-oocyte complexes [3] (vs 2.4±0.1), the cumulus expansion index stood at 3.1±0.1. In addition, the blastocyst percentages with cumulus-oocyte complexes [3] (vs 75%, no significant effect) was 83%.

B2: BMP-15: Recombinant ovine BMP-15 produced in-house in transfected 293H cells, partially purified by hydrophobic interaction chromatography; dosed as % v/v (protein, UniProt Q9MZE2 269-393, looked up)
Bone morphogenetic protein 15: QAGSIASEVPGPSREHDGPESNQCSLHPFQVSFQQLGWDHWIIAPHLYTPNYCKGVCPRVLHYGLNSPNHAIIQNLVSELVDQNVPQPSCVPYKYVPISILLIEANGSILYKEYEGMIAQSCTCR
In the case of B2, in the assay with cumulus-oocyte complexes [1] (10% v/v BMP15 during IVM), the “enhancement of development to the blastocyst stage compared to 293H-treated COCs” value is 30% and the “enhancement of development to the blastocyst stage compared to control COCs” value is 16%. For the same molecule, in the assay with cumulus-oocyte complexes [1], the “blastocyst yields with exogenous factor” value is “increased blastocyst yields” and the “effect on cleavage rate” value is on record as “did not significantly alter cleavage rates”.
